Target: T1, mouse BCL-XL (mouse, UniProt Q64373 1-233)
T1 construct: whole, on cells; In mitochondria of FL5.12-BCL-XL cells
Test: BSOCOES cross-linking in TNFα-treated FL5.12-BCL-XL cells, excised 45 kDa gel section, alkaline reversal, Western blots
Description: FIG. 16a-FL5.12-BCL-XL cells were induced for 5 hours in the presence TNFα/CHX (lanes 3 and 4) or were remained un-induced (lanes 1 and 2), following which mitochondria were prepared from the cells and were treated with the BSOCOES cross-linker (+) (lanes 2 and 4) or remained untreated (−) (lanes 1 and 3). At the end of the incubation, the membranes were lysed and were size-fractionated by SDS-PAGE and immunoblotted using anti-BID Abs. FIGS. 16b-d—The experiment presented in FIG. 16a was repeated and the gel sections corresponding to the position of the 45 kDa band in lanes 3 and 4 (FIG. 16a; marked by boxes) were excised, incubated in alkaline conditions, and later resolved as described in FIGS. 12a-c. Lane 1—excised gel band from lane 3 of the gel presented in FIG. 16a; lane 2—excised gel band from lane 4 of the gel presented in FIG. 16a. […] The asterisk marks cross-reactive substances that might have been released from the gel sections.
To assess whether this band represented a complex between tBID (15 kDa) and BCL-XL (30 kDa), the experiment was repeated and the gel sections corresponding to the position of the 45 kDa band in lanes 3 and 4 (marked by boxes in FIG. 16a) were excised, incubated in alkaline conditions, and later resolved as described in Example 7, hereinabove and in FIGS. 12a-c.

T1 sequence (Q64373 whole entry): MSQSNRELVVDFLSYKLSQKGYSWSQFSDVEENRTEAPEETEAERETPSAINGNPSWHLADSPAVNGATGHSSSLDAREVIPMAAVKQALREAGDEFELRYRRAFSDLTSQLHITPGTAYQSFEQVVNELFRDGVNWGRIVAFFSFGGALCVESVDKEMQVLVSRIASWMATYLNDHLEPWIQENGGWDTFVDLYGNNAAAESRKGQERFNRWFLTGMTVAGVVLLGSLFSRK

binding result: binds
B1: tBID, endogenous, in TNFα/CHX-treated FL5.12 cells (other)
chain: GSQASRSFNQGRIEPDSESQEEIIHNIARHLAQIGDEMDHNIQPTLVRQLAAQFMNGSLSEEDKRNCLAKALDEVKTAFPRDMENDKAMLIMTMLLAKKVASHAPSLLRDVFHTTVNFINQNLFSYVRNLVRNEMD
notes: FL5.12 is a murine cell line; also called endogenous tBID

— patent US20090124564A1 (YEDA RESEARCH AND DEVELOPMENT, published 2009)
